The record followed here is patent US20220372105A1 (POSEIDA THERAPEUTICS, published 2022).

The target of the experiment is T1, CD58 (UniProt P19256 29-215, limits assumed).
T1 construct: also called naturally occurring CD58
T1 sequence (looked up): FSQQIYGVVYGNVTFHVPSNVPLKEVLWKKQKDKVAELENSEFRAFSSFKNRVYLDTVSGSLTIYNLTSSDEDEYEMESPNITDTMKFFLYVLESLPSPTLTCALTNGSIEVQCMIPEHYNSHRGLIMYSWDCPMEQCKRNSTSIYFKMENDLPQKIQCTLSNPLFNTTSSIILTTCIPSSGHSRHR
The experiment is described as follows: not described (screen of a CSR mutant panel).

B1: CD2 extracellular domain with D111H mutation ("CD2 ECD (D111H)") (receptor)
chain: KEITNALETWGALGQDINLDIPSFQMSDDIDDIKWEKTSDKKKIAQFRKEKETFKEKDTYKLFKNGTLKIKHLKTDDQDIYKVSIYHTKGKNVLEKIFDLKIQERVSKPKISWTCINTTLTCEVMNGTDPELNLYQDGKHLKLSQRVITHKWTTSLSAKFKCTAGNKVSKESSVEPVSCPEKGLD
notes: also called CSR CD2z-D111H mutant; mutant CSR
With B1, the binding result was “no binding”.
